Measurements from patent US20210324028A1.
Like-named read-outs stand apart in the source and are kept apart here.

Key:
Experiment in all cases: SPR, steady state
human IL-2Rβ (human) [1] = target: human IL-2Rβ (human) (UniProt P14784)
human IL-2Rβ (human) [2] = target: human IL-2Rβ (human) (UniProt P14784); remark: listed apart in the source
human IL-15Rα (human) = human IL-15Rα (human) (UniProt Q13261)
human IL-15Rα (human), sequence (Q13261 31-205 limits assumed): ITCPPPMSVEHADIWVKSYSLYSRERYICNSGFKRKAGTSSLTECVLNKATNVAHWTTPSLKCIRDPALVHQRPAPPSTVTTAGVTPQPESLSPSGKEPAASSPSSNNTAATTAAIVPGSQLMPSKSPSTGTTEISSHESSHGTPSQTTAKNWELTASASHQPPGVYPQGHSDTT

human IL-2Rβ (human), sequence (P14784 27-240 limits assumed): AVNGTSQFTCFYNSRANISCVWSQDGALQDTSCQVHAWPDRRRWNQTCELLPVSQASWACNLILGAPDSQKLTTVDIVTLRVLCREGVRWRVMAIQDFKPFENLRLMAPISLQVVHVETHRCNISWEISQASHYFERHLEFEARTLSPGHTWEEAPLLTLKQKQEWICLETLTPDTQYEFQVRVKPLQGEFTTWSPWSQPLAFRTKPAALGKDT

| Substance | Kd (human IL-2Rβ (human) [1]) | Kd (human IL-2Rβ (human) [2]) | Kd (human IL-15Rα (human)) |
| --- | --- | --- | --- |
| IL-15Rasu-IL-15 (non-fusion, wild-type) (from UniProt Q13261 31-95) | 69.6 nM | 54.4 nM |  |
| hIL-15 V49R/E64 N/S (ligand) |  | > 500 nM | 130 nM |
